From the domain aggregation screens of Martell et al. (2025)

Experiment: soluble fraction after stress (log2 fold change); higher = more stays soluble; pooled small domains, quantitative proteomics
Conditions: stress: 50 degC
Outline: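 Pooled custom libraries of small protein domains were measured in a high-throughput format, with quantitative proteomics as the read-out. Each library was stressed at 50°C. Aggregation propensity is given as the base-two logarithm of the fold change in how much of each protein stays soluble after the stress. Higher values mean a larger share of the protein remains in solution.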

Sequence	soluble fraction (log2)
HMGISGSDLEKMIRNILVNNTDVVETIKSGQDKKGKKQKFLQGLIMKEARGQTDPREAASLLAKLLE	-0.0715
HMEEQGLPLVIISDGKVLAQNLTLRSLDRAWLQDQLTQHGHSKPEQVFLLTVDERGAVYYVPKE	-0.37
HMVINKRELNVLSIYSRGSEKRAIILFPTGQTKLVKVGDTLNGGRVAAIGTTEIRYIKGGNNLVLKIPQ	-2.41
HMRDTDAEVTYKLNEPFKTMGSVSVEGKVLEFAGSKWFARAAEFASNTEVYPLAKNRVRLTFTFHGLTAP	0.105
HMDEKPPHEALSNREFQVLQLLAQGRSVGQIAQQLTLSANTISTYRARIFDKLGLHNPADLFSYAARHRLT	-0.273
HMKQFVVQYYGIDGEVINSVYKNGMSDLTSYEPEKIDGKNFKGWSLSEDSKKVIDENYRINSDVNLYAVYT	0.0253
HMLPSWLPTDAWEAFLEARVAMKARPTERAKGLLLGELSKLVSQGQDARAVLEQSVQRGWRGLFPVK	-1.52
HMVLRPDDVEDSLWREWVSHRKAKRAAVTEGVLKTFRQEATKASFTLADAMRKSIDRGWTGFEAEWVARET	-0.074
HMLWTHIALPVRSLDDTMAFYDKYTTLENIHERQDPETNMRSVWLANPGDKTEQAARFVLVLI	-0.116
HMSQTPDLQQERANLGDNADARIEAVDLWANKFFPEEHADAILQIGQTAKGIEALEFIMSKV	0.0193
HMSSEPYISLPRGAAHDAYPLSTKAVAAQLGMSEVWLANLRSKGKGPRYVRVGTRVFYSPEDVAQWRRAT	-0.889
HMSGTGSYVALLRDPQGNVGKVVVKGSKGEQVLSQPQQAARLDGATPSYEVTGRQIAEDFGRALAV	0.127
HMNQGKLIEMLQEMKEIAHSQNNYLTKNEIANYLGDTVLSKEQLQAVYHYLGENHIEVEGYVYIP	0.035
HMATGGKIYIGMNDNGKVVGVSDADKLLEDIPNKVRDVLGIIVDVNLLEENGLKYIEIDVPPYSN	-0.585
HMKANIGDQVFTQLKDQIINGEWRPGDRIPSEAQLIQLFGVSRGTVRQAVQKLAGEGLIVTRHGEGSFVQG	0.096
HMPSTVRVPDVAETSLSEAKKTIEESGLEVGAIHKVNNDTVKKNHVIKTSPTIGSAKKEGSAIDIYVSKG	-0.0128
HMSNIIIYPNPTNDGLIHIKGSKFPFNYALYNLSGKLIETGKKNQIQLNDRGVYLLKIQTEGQTYFKKII	0.272
HMQLGQMIVKLRKEQGLTQETFAKKFNVTRQTVSNWENEKSYPDLHTLVKISDEFHLSLDILLK	-2.8
HMDGVLVYKEGMTVADMATGLGKTIAQVVMKLMQLGIMANQNQSVDRETVELVALDFGYELKD	-1.76
HMKPMNNNDILRRLRYTFDLSDDKMMETFALGGYEANRSEISDWLKKDDHPEQKSLYDKSLSHFLNGFIV	-0.202
HMYKLTYVVDGEVYLEETVSYGSKIAAAPAPEKEGYTFSGWEGLPEVMPAKDVTVSGSFTVN	-0.405
HMDYYDTLGVPRNASQSDIKKAYKKQSMQHHPDRTGGDDTKFKDVNEAYQVLSNSEKKQMYDQFGTA	0.0532
HMFDDEELDRFAGVPADAYLPADEDEFREVFYTMRPGEVVEWVRSLELRHIEIPNGIKDEIFMMIR	-3.35

Sequence	soluble fraction (log2)
HMPGIDDAAVEHAERVLAQHIGPMARLLVRRTVPRAANLFDLHRRLGALIPESEPRTAFLSAVVT	0.0708
HMNIYIEFGRRLAFIRQNSKLSQSQIAQKLNIAQSTYAGYEKGVRKIPLEIIVQLSKILNISPTILILG	-3.91
HMRTGSSVLVGLVAPVRLGATGAPKVFADGALWEARSAVPLNDGQLVEITGTDGLTVLVKPSA	0.0494
HMTNELVNVNKLLDVMEPSIPLTALEIMTRLGIKSKETLRNSYLNPAIKLGMINLTSPLKPTSKNQMYYK	-0.307
HMEDDPIYEQVMIFLLDKQITSAPELERRFKITHQRAIELLAQMEKTGIVSTMGHAGKRDVLT	-0.827
HMEIELHNLALNIKEFRKKNKLSQAELAEKLGVARTTIGYYERAEVEPNIYTLVQLSKLMNRSIDSLLGL	-1.3
HMAVVEVATTTATEYKVEKGHHFKVGDFVMFKTGAKSYAITAIDTTSPIFDKITVGTTLGEAIPVGGTLM	-1.38
HMELNILELKSKERKISLEDHLYIKSFNFDNETNEYFYRLAFNSSKDLKNFKATINNDKTISIINFEI	-3.16
HMDEEEKGEVEVPNLIGLTRKEAKKTLEEEGLLIETKESLKTNLDDEYEKIKSQLPKAGIKIKQGSTVYVD	0.0917
HMLDIVVGSTGYALGEITDHSGTVRVNGDTWTARLVDAAGPVEDGDRVEVYAVEGTTLLVYPS	-0.396
HMEMTGAHLRKKIRAKGFTFQQIADAIGESKQNLSQILSTNNIKTGTLERIAAAMGESVSYF	-0.191
HMITEQEFQRVAAYVKNKAGINLNEKKVLVQGRLDSYMQRKGYSSYDEFMDRVERFPTGPEAEDLMNALTT	0.0575
HMRTAKEVFYKELKGYMQNGDELSVKKIYSLFPEINPKTVSWRLHELVQHGKIHRTGHGYYALTQ	-1.07
HMRLDVALRGVLLDGDPTQSRAFVLVSGTTSTYRLGETVQSAELVAINADTITLRTETGLHVIGFDGLI	-2.48
HMRPILTLEEAKAKALAHAGLKADQVTFTEAKLDWDDGKQVYDIEFYTADFKEYDYEIDAKTGEVLEVDY	-0.452
HMNFSKEYILVHSYKEIDILDALIVKYEATLVNREFDLFINSYIKINEDYAKLFRDEIISKTSGSMSIKEL	-0.825
HMKILALETSAKAVSAAVSENGRILASGYQDTGLTHSRTLMPIVEHILKNTDLKLSDMDAIAVAVGPG	0.211
HMSAGISVADVTNRTYDEGYNTLTAQHLLVNKVYEANETIPLDTIIRTDPVAGTKVPDNTSITVYVSSGK	0.000832
HMATGIKAVDNVFGWMNLEQVAKTVGLDIPSVLRASGLPEDTPVDISIKKIPGVDDEELKDSLRQYIEKS	0.0213
HMIGMDMQELIGRYKGDPDEMGKIELAAMSMLKLSEDMSSDHVLQKSKLRQDGLWLLKYVQE	-0.551
HMTPLILTAQEGGERLDAFVASQVEDLTRSAAQRLLEQGAVTSGGKPLKKNAKTTPGMVVEVLLPDPQ	0.251
HMQLGSILAYKFPQFGGIDGAWQVRDDSNGTGPYIAFWDAKTIGRGMPTEDELTAWAQEYEA	-0.153
HMTETFVLNLRQPIAAAPVLPGYRVARTDEQTLEVEVSKDQNLNEIFTALSALGVEVLSMRNK	-0.12

Sequence	soluble fraction (log2)
HMETDNEKVRTAFQNGLAAYREQDWDRAEAAFGAVLAEMPEDRPSLVYLERIAHLRKKAPPGAWDGVWI	-0.0616
HMAHRYQQIADDLGRRVEAGEFAAGRLLPSEATLSGQYKASRVTVRKALEALRTDGLVESRQGFGWFVAAD	-0.379
HMITDQQKEQLSSLLKQAEAALAKAAANDQVLAAHKDEAVELLKSTSATSADAADLINELTELLKPYQ	0.352
HMEEILLSVKADGTYWVDQKEVTLDEVGALLDKEPDRLLNIFMDEKVPVRHFINVVDIAKVKREGRFII	-0.453
HMYTVKELSRLTGLTPRTLRYYDAIGLLSPARNRDNDYRLYGGAEVDRLQEILLYREMGLPLEEIGRILD	-1.45
HMNVLLGISELSHATGVTPAQLRYWVSQGYIKNYGSNKKNKFSLETVFMVRSIKIFQNQGYTLSASAKRAA	0.0163
HMRDQAIDIYKTVHSVAEPYKEVFLLRVLGELSFKEISHIFGKSESWAKVTFFRAKIKVVEKREES	-3.74
HMKEVDSESAFAERGISEVWIPALQKMGILTLEALDAANPNKVFNDLGGMRKKLKIDAAMPTKDEVTAWIQ	0.0238
HMINEDMTQSDRMELWGRLIDVVEDWLAEKGITEEDIPNEEREGVEDAAIIFGDDYDYLADRFSEVIGISR	-1.18
HMSADDLVSRTQAIVAELKDLEGPLLPILHSVQEAFGHVPDEVKPVIAEALNLSRAEVHGVVSFYHDFRAH	-0.112
HMLDFLVSKYESELLADLLWSLGVVAVEEREATGDLVTLRTSLGDDHSFTRELVQEKFPDVIVSTAL	-1.47
HMDSSLVWVDYLLGSKLTKLNSSNELTGPGASAKTIGAFLGENKQSFDLYIESVHNARDTYSDILTHGT	-0.0043
HMSALIGAHTLERIDSRDFEGVVMAWLPKRDGYDSLYKIYHIEDGDFEELDDREVQAAISLFIEGT	-0.431
HMVETVQVVGAGQDIMPGSRINYSSLHYITVPRSYFHEDMFAKNNLVVGRIARAYVAKGEPLLAASLMPK	-2.54
HMKELLTKQQREEILETVKTKTPKDFGYTAEHWTTGFLGKWIEEHYEVEYKSKTSLYLVFKKASFTYHKPG	0.228
HMMTDAEKTFIFFSHLSSVEDHIAYGDKQFYMSLFWQHENKRELSSSQLYHLERLYNKYSMEEIEKKEEFS	-0.78
HMTRYEQLAAQIRQQIEDNIWQSGDRLPSLRDTVKQSGLSLMTVLQSYQLLESQGWITARPQSGYYVAHR	0.348
HMAEDLRTLDGIDEDLLRDLAQAGITTRDGLAELSIDELREITGVEPGEAEKIILAARAHWFETDE	-0.135
HMSMANKKDFILDTAQKLFMEQGFDQTSISQILEATQIARGTLYYYFSSKEEIMDAIIERTIEQ	-1.05
HMNAVDLLSPQEQRIFELIGEGMSNRQIADVMYLAEKTVKNYVSNVLMKLGMERRTEAAALAARLDERQK	-0.114
HMYGTQTVNRGAVQPGMLVKHKDSTWTASANARGRLYLHRGVEMTYTRDLLVEVYLNGLGNGL	0.102
HMTQQNRDELYRRMIDAGWDQLVRNGIRSLRVEQVAAAVGIAKGTFYHFFDSKDDFIYAMLMENRQ	-3.07
